Experimental data as given in publication PMC5717138.

Experiments:
[1] = chromatin fractionation, chromatin-bound Polη 24 h post-UV; settings: glycan lost; control: wild type
[2] = RPA foci, complemented XP30RO, 4 and 24 h post-UV; settings: glycan lost; control: wild type
[3] = unreplicated CPDs in ssDNA, complemented XP30RO, 4 h post-UV; settings: glycan lost; control: wild type
[4] = RPA2 foci-positive cells, 24 h recovery after cisplatin; settings: glycan lost; control: wild type
[5] = GFP-Polη foci, U2OS, 8 h post-UVC; settings: glycan lost; control: wild type
[6] = GFP-Polη foci, U2OS, 34 and 46 h after cisplatin removal; settings: glycan lost; control: wild type
[7] = supF shuttle vector assay, complemented XP30RO; settings: glycan lost; control: wild type
[8] = DNA fiber assay after cisplatin; settings: glycan lost; control: wild type
[9] = GFP-Polη foci, U2OS, 24 h after cisplatin; settings: glycan lost; control: wild type
[10] = denaturing Flag IP, anti-HA-Ub and anti-K48-Ub blot; settings: glycan lost; control: wild type
[11] = GFP-Polη foci, U2OS, 24 h post-UVC; settings: glycan lost; control: wild type
[12] = chromatin-fraction IP, anti-ubiquitin/K48 blot; settings: glycan lost; control: wild type
[13] = quantitative MS of di-Gly peptides; settings: glycan lost; control: wild type
[14] = DNA fiber assay, no cisplatin; settings: glycan lost; control: wild type
[15] = in vitro ubiquitination of E. coli-purified His-Polη; settings: control: WT His-Polη without OGT co-expression

B1: DNA polymerase η (Polη): T457A (protein)
parent chain: MATGQDRVVALVDMDCFFVQVEQRQNPHLRNKPCAVVQYKSWKGGGIIAVSYEARAFGVTRSMWADDAKKLCPDLLLAQVRESRGKANLTKYREASVEVMEIMSRFAVIERASIDEAYVDLTSAVQERLQKLQGQPISADLLPSTYIEGLPQGPTTAEETVQKEGMRKQGLFQWLDSLQIDNLTSPDLQLTVGAVIVEEMRAAIERETGFQCSAGISHNKVLAKLACGLNKPNRQTLVSHGSVPQLFSQMPIRKIRSLGGKLGASVIEILGIEYMGELTQFTESQLQSHFGEKNGSWLYAMCRGIEHDPVKPRQLPKTIGCSKNFPGKTALATREQVQWWLLQLAQELEERLTKDRNDNDRVATQLVVSIRVQGDKRLSSLRRCCALTRYDAHKMSHDAFTVIKNCNTSGIQTEWSPPLTMLFLCATKFSASAPSSSTDITSFLSSDPSSLPKVPVTSSEAKTQGSGPAVTATKKATTSLESFFQKAAERQKVKEASLSSLTAPTQAPMSNSPSKPSLPFQTSQSTGTEPFFKQKSLLLKQKQLNNSSVSSPQQNPWSNCKALPNSLPTEYPGCVPVCEGVSKLEESSKATPAEMDLAHNSQSMHASSASKSVLEVTQKATPNPSLLAAEDQVPCEKCGSLVPVWDMPEHMDYHFALELQKSFLQPHSSNPQVVSAVSHQGKRNPKSPLACTNKRPRPEGMQTLESFFKPLTH
For B1, the localisation_or_trafficking [1] was “increases”, the “other: CPD lesion bypass” value [2] was “no change” and the “other: CPD lesion bypass” value [3] was “no change”. For the same protein, the “other: translesion synthesis after cisplatin, other: % cells with >10 RPA2 foci” value [4] was “increases, 33.4 vs 12.6”, the localisation_or_trafficking [5] was “no change” and the localisation_or_trafficking [6] was “increases”. For the same protein, the “other: UV-induced mutation frequency” value [7] was “increases”, the “other: replication fork progression, other: median fiber length” value [8] was “decreases, 8.62 vs 10.65” and the localisation_or_trafficking [9] was “no change”. The “other: polyubiquitination” value [10] was “decreases”, the localisation_or_trafficking [11] was “increases” and the “other: polyubiquitination” value [12] was “decreases”. For the same protein, the “other: site-specific ubiquitination” value [13] was “decreases” and the “other: replication fork progression, other: median fiber length” value [14] was “no change, 12.07 vs 12.17”.

B2: DNA polymerase η (Polη): T457E (protein)
parent chain: B1 parent chain
With B2 the localisation_or_trafficking [11] was “increases”.

B3: DNA polymerase η (Polη): T457A without OGT (protein)
parent chain: B1 parent chain
With B3 the “other: polyubiquitination” value ([15]; glycan lost) was “no change”.

B4: DNA polymerase η (Polη): GST-OGT co-expression (WT) (protein)
parent chain: B1 parent chain
For B4, the “other: polyubiquitination” value ([15]; glycan gained) was “increases”.

B5: DNA polymerase η (Polη): 3A (protein)
parent chain: B1 parent chain
In the case of B5, the “other: polyubiquitination” value [10] is reported as “decreases”.

B6: DNA polymerase η (Polη): T457D (protein)
parent chain: B1 parent chain
In the case of B6, the localisation_or_trafficking [11] is reported as “increases”.

B7: DNA polymerase η (Polη): 5A (protein)
parent chain: B1 parent chain
For B7, the “other: polyubiquitination” value [10] was “decreases”.

B8: DNA polymerase η (Polη): T457A with GST-OGT co-expression (protein)
parent chain: B1 parent chain
For B8, the “other: polyubiquitination” value ([15]; glycan lost) was “no change”.

B9: DNA polymerase η (Polη): Polη-3A (protein)
parent chain: B1 parent chain
With B9 the localisation_or_trafficking [5] was “no change” and the localisation_or_trafficking [11] was “increases”.

B10: DNA polymerase η (Polη): Polη-5A (protein)
parent chain: B1 parent chain
In the case of B10, the localisation_or_trafficking [5] is reported as “no change” and the localisation_or_trafficking [11] is reported as “increases”.
